Positions count from the first letter of the chain named. In names and notes the source's numbering stands.
B1: OsHPPDm-F372A-F383W-02: nucleotide sequence encoding Oryza sativa HPPD with F372A+F383W; vector DBN11757 (nucleic acid)
DNA: ATGCCACCCACGCCAACACCAACGGCCACCACTGGTGCCGTCTCGGCCGCGGCAGCGGCCGGTGAGAATGCTGGTTTCAGGCTAGTCGGCCACCGCCGCTTCGTGAGGGCAAATCCAAGATCTGATCGGTTCCAAGCACTTGCTTTCCACCATGTTGAGCTGTGGTGCGCTGACGCCGCTTCAGCTGCCGGGAGGTTTGCTTTTGCTTTAGGGGCGCCGCTCGCCGCAAGGAGTGATCTTTCCACCGGAAATTCTGCTCATGCTTCTCTTCTACTTAGATCAGCAAGTGTTGCATTTCTGTTCACTGCACCTTATGGCGGAGACCATGGTGTCGGGGCCGATGCTGCAACAACAGCTAGCATACCATCATTTTCTCCCGGCGCCGCAAGAAGATTTGCAGCCGATCATGGCCTGGCAGTTCATGCTGTGGCATTGAGGGTCGCCGACGCGGCTGATGCGTTCCGCGCCAGCGTGGCTGCTGGAGCTAGGCCGGCGTTCCAGCCTGCTGACCTTGGGGGTGGATTTGGATTGGCGGAGGTTGAATTATATGGTGATGTTGTGCTCCGTTTTGTTTCCCATCCAGATGGTGCTGATGCTCCATTTCTACCTGGATTTGAAGGGGTGTCAAACCCCGGCGCGGTGGATTATGGACTGCGTCGATTTGATCACGTGGTAGGTAATGTTCCTGAGTTGGCTCCCGTGGCGGCCTACATTTCAGGCTTTACTGGCTTCCATGAATTTGCCGAGTTCACCGCGGAAGATGTGGGAACTGCTGAAAGTGGATTGAACTCTGTTGTCCTGGCGAACAATGCAGAGACTGTATTGCTCCCCTTGAATGAGCCTGTGCACGGCACCAAACGGCGATCTCAAATTCAGACATACCTCGACCACCACGGGGGCCCTGGTGTTCAGCATATTGCTCTAGCCAGCGACGACGTACTGGGAACACTGAGGGAGATGAGAGCCCGTTCCGCCATGGGTGGCTTTGAGTTTCTGGCCCCTCCGCCGCCAAACTACTACGACGGCGTCAGACGGCGGGCGGGTGACGTCTTGAGTGAGGAGCAGATCAATGAATGTCAAGAACTTGGGGTTCTTGTTGATAGAGATGATCAAGGAGTGCTCCTCCAAATAGCCACAAAACCTGTTGGCGACCGCCCGACCTTCTGGCTTGAAATGATCCAAAGGATCGGCTGCATGGAGAAGGATGAATCGGGCCAGGAGTACCAGAAGGGTGGGTGTGGTGGCTTTGGGAAGGGCAACTTCAGCGAGCTGTTCAAGTCAATTGAAGAATATGAAAAATCATTGGAGGCAAAGCAAGCTCCGACGGTGCAGGGAAGCTGA
modifications: OsHPPDm-F372A-F383W-02 Nucleotide Sequence
notes: vector DBN11757
B2: OsHPPDm-F383W-02: nucleotide sequence encoding Oryza sativa HPPD with F383W; vector DBN11756 (nucleic acid)
DNA: B1 DNA with G1132T, C1133T
modifications: OsHPPDm-F383W-02 Nucleotide Sequence
notes: vector DBN11756
B3: OsHPPDm-F372A-02: nucleotide sequence encoding Oryza sativa HPPD with F372A; vector DBN11755 (nucleic acid)
DNA: B1 DNA with G1166T, G1167C
modifications: OsHPPDm-F372A-02 Nucleotide Sequence
notes: vector DBN11755

Test system: Arabidopsis thaliana T1 plants
Test: Topramezone tolerance of transgenic Arabidopsis thaliana T1 plants (spray, bleached leaf area grade, damage score)
Type: in vivo
Details: number of plants; topramezone 25 g ai/ha (1×), 7 DAT; Table 4
In short: (§1)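 Damage was assessed by bleaching grade (0 none; 1 <50%; 2 >50%; 3 100% of leaf area) one week after spraying. Sprays on 18-day-old T1 and wild-type plants used field-rate multiples: topramezone 25–200, isoxaflutole 35–280, mesotrione 52.5–420 g ai/ha.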

Compared with B1, B2 is lower in “Classification and statistics of the grade of pesticide damage: Grade 0” value: 10 for the first, 0 for the second.

For B3, the “Classification and statistics of the grade of pesticide damage: Grade 0” value was 8.

Going from B1 to B2, the “Classification and statistics of the grade of pesticide damage: Grade 1” value falls from 6 to 3.

With B3 the “Classification and statistics of the grade of pesticide damage: Grade 1” value was 8.

Compared with B1, B2 is higher in “Classification and statistics of the grade of pesticide damage: Grade 2” value: 0 for the first, 9 for the second.

With B3 the “Classification and statistics of the grade of pesticide damage: Grade 2” value was 0.

Going from B1 to B2, the “Classification and statistics of the grade of pesticide damage: Grade 3” value rises from 0 to 4.

B3 was tested, and the “Classification and statistics of the grade of pesticide damage: Grade 3” value was 0.

Same assay, conditions: number of plants; topramezone 100 g ai/ha (4×), 7 DAT; Table 4

Going from B1 to B2, the “Classification and statistics of the grade of pesticide damage: Grade 0” value falls from 2 to 0.

With B3 the “Classification and statistics of the grade of pesticide damage: Grade 0” value was 0.

Compared with B1, B2 is lower in “Classification and statistics of the grade of pesticide damage: Grade 1” value: 13 for the first, 0 for the second.

For B3, the “Classification and statistics of the grade of pesticide damage: Grade 1” value was 0.

Compared with B1, B2 is lower in “Classification and statistics of the grade of pesticide damage: Grade 2” value: 1 for the first, 0 for the second.

B3 was tested, and the “Classification and statistics of the grade of pesticide damage: Grade 2” value was 0.

First: B1
Second: B2
The “Classification and statistics of the grade of pesticide damage: Grade 3” value of the first is lower: 0 for the first, 16 for the second.

For B3, the “Classification and statistics of the grade of pesticide damage: Grade 3” value was 16.

Same assay, conditions: pesticide damage score 0-100; topramezone 25 g ai/ha (1×), 7 DAT; Table 4

First: B1
Second: B2
The Scores of the first is lower: 13 for the first, 69 for the second.

B3 showed a Scores of 17.

Same assay, conditions: pesticide damage score 0-100; topramezone 100 g ai/ha (4×), 7 DAT; Table 4

First: B1
Second: B2
The Scores of the first is lower: 31 for the first, 100 for the second.

With B3 the Scores was 100.

Same assay, conditions: topramezone 25 g ai/ha (1×), 7 DAT; Table 4

With B1 the Resistance evaluation was “highly”.
In the case of B2, the Resistance evaluation is reported as “non-resistant (non-resistant plants (scores 68-100))”.
With B3 the Resistance evaluation was “moderately”.

Same assay, conditions: topramezone 100 g ai/ha (4×), 7 DAT; Table 4

B1 was tested, and the Resistance evaluation was “moderately”.
In the case of B2, the Resistance evaluation is reported as “non-resistant (non-resistant plants (scores 68-100))”.
With B3 the Resistance evaluation was “non-resistant (non-resistant plants (scores 68-100))”.

Test system: Arabidopsis thaliana T1 plants
Test: Isoxaflutole tolerance of transgenic Arabidopsis thaliana T1 plants (spray, bleached leaf area grade, damage score)
Type: in vivo
Design: Scores (pesticide damage): scale not given here
Details: isoxaflutole 35 g ai/ha (0.5x field concentration), spray, Arabidopsis thaliana T1 plants
In short: as §1

In the case of B1, the Resistance evaluation is reported as “Highly”.
In the case of B2, the Resistance evaluation is reported as “Non-resistant”.
In the case of B3, the Resistance evaluation is reported as “Poorly”.

First: B1
Second: B2
The “Scores (pesticide damage)” value of the first is lower: 10 for the first, 94 for the second.

For B3, the “Scores (pesticide damage)” value was 52.

Same assay, conditions: isoxaflutole 35 g ai/ha (0.5x field concentration), spray, Arabidopsis thaliana T1 plants, 16 plants

First: B1
Second: B2
The “Classification and statistics of the grade of pesticide damage: Grade 0 (number of plants)” value of the first is higher: 11 for the first, 0 for the second.

B3 was tested, and the “Classification and statistics of the grade of pesticide damage: Grade 0 (number of plants)” value was 0.

First: B1
Second: B2
The “Classification and statistics of the grade of pesticide damage: Grade 1 (number of plants)” value of the first is higher: 5 for the first, 0 for the second.

For B3, the “Classification and statistics of the grade of pesticide damage: Grade 1 (number of plants)” value was 8.

Going from B1 to B2, the “Classification and statistics of the grade of pesticide damage: Grade 2 (number of plants)” value rises from 0 to 3.

In the case of B3, the “Classification and statistics of the grade of pesticide damage: Grade 2 (number of plants)” value is reported as 7.

First: B1
Second: B2
The “Classification and statistics of the grade of pesticide damage: Grade 3 (number of plants)” value of the first is lower: 0 for the first, 13 for the second.

In the case of B3, the “Classification and statistics of the grade of pesticide damage: Grade 3 (number of plants)” value is reported as 1.

Same assay, conditions: isoxaflutole 70 g ai/ha (1x field concentration), spray, Arabidopsis thaliana T1 plants

In the case of B1, the Resistance evaluation is reported as “Highly”.
In the case of B2, the Resistance evaluation is reported as “Non-resistant”.
For B3, the Resistance evaluation was “Non-resistant”.

Going from B1 to B2, the “Scores (pesticide damage)” value rises from 15 to 100.

For B3, the “Scores (pesticide damage)” value was 100.

Same assay, conditions: isoxaflutole 70 g ai/ha (1x field concentration), spray, Arabidopsis thaliana T1 plants, 16 plants

Going from B1 to B2, the “Classification and statistics of the grade of pesticide damage: Grade 0 (number of plants)” value falls from 9 to 0.

In the case of B3, the “Classification and statistics of the grade of pesticide damage: Grade 0 (number of plants)” value is reported as 0.

Going from B1 to B2, the “Classification and statistics of the grade of pesticide damage: Grade 1 (number of plants)” value falls from 7 to 0.

For B3, the “Classification and statistics of the grade of pesticide damage: Grade 1 (number of plants)” value was 0.

B1 and B2 are the same in “Classification and statistics of the grade of pesticide damage: Grade 2 (number of plants)” value: 0 for the first, 0 for the second.

With B3 the “Classification and statistics of the grade of pesticide damage: Grade 2 (number of plants)” value was 0.

Going from B1 to B2, the “Classification and statistics of the grade of pesticide damage: Grade 3 (number of plants)” value rises from 0 to 16.

In the case of B3, the “Classification and statistics of the grade of pesticide damage: Grade 3 (number of plants)” value is reported as 16.

Test system: Arabidopsis thaliana T1 plants
Test: Mesotrione tolerance of transgenic Arabidopsis thaliana T1 plants (spray, bleached leaf area grade, damage score)
Type: in vivo
Design: Scores: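 damage score 0-100 computed as Σ(N×S)/(T×M)×100 over grades 0-3 with higher meaning more damage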
Details: mesotrione 52.5 g ai/ha; Arabidopsis thaliana T1 plants
In short: as §1

In the case of B1, the Resistance evaluation is reported as “Highly resistant”.
With B2 the Resistance evaluation was “Non-resistant”.
With B3 the Resistance evaluation was “Poorly resistant”.

Going from B1 to B2, the Scores rises from 15 to 85.

B3 showed a Scores of 63.

Same assay, conditions: mesotrione 52.5 g ai/ha; Arabidopsis thaliana T1 plants; 16 plants

Compared with B1, B2 is lower in “Grade 0 (classification and statistics of the grade of pesticide damage; number of plants)” value: 9 for the first, 0 for the second.

With B3 the “Grade 0 (classification and statistics of the grade of pesticide damage; number of plants)” value was 0.

Compared with B1, B2 is lower in “Grade 1 (classification and statistics of the grade of pesticide damage; number of plants)” value: 7 for the first, 0 for the second.

For B3, the “Grade 1 (classification and statistics of the grade of pesticide damage; number of plants)” value was 5.

Compared with B1, B2 is higher in “Grade 2 (classification and statistics of the grade of pesticide damage; number of plants)” value: 0 for the first, 7 for the second.

In the case of B3, the “Grade 2 (classification and statistics of the grade of pesticide damage; number of plants)” value is reported as 8.

Going from B1 to B2, the “Grade 3 (classification and statistics of the grade of pesticide damage; number of plants)” value rises from 0 to 9.

For B3, the “Grade 3 (classification and statistics of the grade of pesticide damage; number of plants)” value was 3.

Same assay, conditions: mesotrione 105 g ai/ha; Arabidopsis thaliana T1 plants

For B1, the Resistance evaluation was “Poorly resistant”.
B2 was tested, and the Resistance evaluation was “Non-resistant”.
In the case of B3, the Resistance evaluation is reported as “Non-resistant”.

Compared with B1, B2 is higher in Scores: 38 for the first, 100 for the second.

In the case of B3, the Scores is reported as 100.

Same assay, conditions: mesotrione 105 g ai/ha; Arabidopsis thaliana T1 plants; 16 plants

B1 and B2 are the same in “Grade 0 (classification and statistics of the grade of pesticide damage; number of plants)” value: 0 for the first, 0 for the second.

For B3, the “Grade 0 (classification and statistics of the grade of pesticide damage; number of plants)” value was 0.

Compared with B1, B2 is lower in “Grade 1 (classification and statistics of the grade of pesticide damage; number of plants)” value: 14 for the first, 0 for the second.

For B3, the “Grade 1 (classification and statistics of the grade of pesticide damage; number of plants)” value was 0.

Compared with B1, B2 is lower in “Grade 2 (classification and statistics of the grade of pesticide damage; number of plants)” value: 2 for the first, 0 for the second.

In the case of B3, the “Grade 2 (classification and statistics of the grade of pesticide damage; number of plants)” value is reported as 0.

Going from B1 to B2, the “Grade 3 (classification and statistics of the grade of pesticide damage; number of plants)” value rises from 0 to 16.

B3 was tested, and the “Grade 3 (classification and statistics of the grade of pesticide damage; number of plants)” value was 16.
